Test results reported in patent US20090035322A1 (Regeneron, published 2009).

T1: human CD20 (human, UniProt P11836 1-297)
T1 sequence: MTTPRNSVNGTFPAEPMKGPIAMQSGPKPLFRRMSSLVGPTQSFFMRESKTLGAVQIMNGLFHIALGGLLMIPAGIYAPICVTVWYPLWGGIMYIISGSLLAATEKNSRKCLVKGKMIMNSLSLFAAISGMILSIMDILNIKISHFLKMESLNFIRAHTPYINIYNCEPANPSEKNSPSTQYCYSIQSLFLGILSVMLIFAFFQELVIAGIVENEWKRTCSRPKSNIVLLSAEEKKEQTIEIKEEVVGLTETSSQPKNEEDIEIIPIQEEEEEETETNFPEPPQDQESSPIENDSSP

T2: mutant human CD20 #1 (Y77F) (human, UniProt P11836 1-297)
T2 construct: Human residues replaced by mouse residues; stably expressed on MG87 cells
T2 sequence: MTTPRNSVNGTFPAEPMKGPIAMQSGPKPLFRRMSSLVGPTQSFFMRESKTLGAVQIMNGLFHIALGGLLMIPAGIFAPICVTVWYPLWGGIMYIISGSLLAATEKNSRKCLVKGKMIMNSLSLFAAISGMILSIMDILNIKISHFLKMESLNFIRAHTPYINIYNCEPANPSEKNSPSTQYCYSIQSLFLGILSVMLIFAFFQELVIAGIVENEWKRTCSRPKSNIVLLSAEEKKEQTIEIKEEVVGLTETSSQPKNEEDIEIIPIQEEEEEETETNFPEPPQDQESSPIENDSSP

T3: mutant human CD20 #2 (N163D) (human, UniProt P11836 1-297)
T3 construct: Stably expressed on MG87 cells
T3 sequence: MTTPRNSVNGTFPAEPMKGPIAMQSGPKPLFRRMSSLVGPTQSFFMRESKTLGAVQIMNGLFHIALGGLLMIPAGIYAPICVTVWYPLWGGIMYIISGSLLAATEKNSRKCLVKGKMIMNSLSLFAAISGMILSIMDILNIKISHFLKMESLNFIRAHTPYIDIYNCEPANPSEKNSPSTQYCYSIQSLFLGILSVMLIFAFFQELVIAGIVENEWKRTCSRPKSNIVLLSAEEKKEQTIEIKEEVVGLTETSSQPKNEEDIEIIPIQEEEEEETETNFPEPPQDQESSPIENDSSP

T4: mutant human CD20 #4 (N166D) (human, UniProt P11836 1-297)
T4 construct: Stably expressed on MG87 cells
T4 sequence: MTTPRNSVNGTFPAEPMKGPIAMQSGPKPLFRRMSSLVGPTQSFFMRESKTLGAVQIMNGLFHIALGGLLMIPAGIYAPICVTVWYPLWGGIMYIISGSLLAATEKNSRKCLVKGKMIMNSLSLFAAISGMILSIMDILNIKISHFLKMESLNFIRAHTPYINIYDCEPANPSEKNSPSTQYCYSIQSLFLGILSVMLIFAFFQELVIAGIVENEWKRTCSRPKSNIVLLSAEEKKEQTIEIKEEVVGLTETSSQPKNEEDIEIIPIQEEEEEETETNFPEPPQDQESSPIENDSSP

T5: mutant human CD20 #7 (Y77F, N163D) (human, UniProt P11836 1-297)
T5 construct: Stably expressed on MG87 cells
T5 chain: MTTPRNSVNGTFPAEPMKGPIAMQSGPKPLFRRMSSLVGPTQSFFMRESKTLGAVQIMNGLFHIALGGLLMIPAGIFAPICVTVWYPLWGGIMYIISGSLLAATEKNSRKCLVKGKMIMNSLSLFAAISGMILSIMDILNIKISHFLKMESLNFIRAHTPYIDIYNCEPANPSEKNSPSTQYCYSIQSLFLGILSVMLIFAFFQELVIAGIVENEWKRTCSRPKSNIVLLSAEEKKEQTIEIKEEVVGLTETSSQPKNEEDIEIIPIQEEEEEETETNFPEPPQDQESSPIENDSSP

T6: mutant human CD20 #8 (Y77F, N163D, N166D) (human, UniProt P11836 1-297)
T6 construct: Stably expressed on MG87 cells
T6 chain: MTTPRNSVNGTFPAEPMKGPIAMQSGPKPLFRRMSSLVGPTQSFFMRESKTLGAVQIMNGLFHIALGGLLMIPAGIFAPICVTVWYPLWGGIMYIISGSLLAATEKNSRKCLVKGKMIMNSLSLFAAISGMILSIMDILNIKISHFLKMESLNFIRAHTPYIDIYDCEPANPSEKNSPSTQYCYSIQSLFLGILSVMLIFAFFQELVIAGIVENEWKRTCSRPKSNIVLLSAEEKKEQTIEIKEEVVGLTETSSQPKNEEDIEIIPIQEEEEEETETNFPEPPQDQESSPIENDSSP

T7: mutant human CD20 #10 (A157V) (human, UniProt P11836 1-297)
T7 construct: Stably expressed on MG87 cells
T7 sequence: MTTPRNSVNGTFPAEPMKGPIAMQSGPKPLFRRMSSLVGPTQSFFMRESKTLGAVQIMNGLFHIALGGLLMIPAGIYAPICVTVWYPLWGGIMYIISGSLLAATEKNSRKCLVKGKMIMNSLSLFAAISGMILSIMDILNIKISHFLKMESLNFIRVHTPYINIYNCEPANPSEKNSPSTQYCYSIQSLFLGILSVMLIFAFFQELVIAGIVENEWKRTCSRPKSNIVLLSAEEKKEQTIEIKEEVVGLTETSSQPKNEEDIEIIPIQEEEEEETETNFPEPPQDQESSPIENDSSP


Assays:
[1] = target: T1, human CD20; experiment: cell-based or functional assay
[2] = target: T1, human CD20; experiment: flow cytometry, hCD20-transfected MG87 cells
Experimental: Briefly, parental MG87 and human CD20-transfected MG87 cells were incubated for 30 min at 4° C. with each of the 15 human antibodies and the two control antibodies, followed by incubation with PE-conjugated anti-human IgG antibody. Binding was assessed by flow cytometry. Fluorescence intensities were compared with binding to the parental cell line and control isotype-matched sample.

[3] = target: T2, mutant human CD20 #1 (Y77F); experiment: FACS, mutant-hCD20 MG87 cells; 100%=best antibody
Experimental: (§1) Briefly, approximately 1×10⁶ cells from each stably transfected cell line expressing a mutant human CD20 were collected and incubated with each anti-human antibody, at 10 μg/ml, on ice for 1 hr, followed by incubation with APC-conjugated goat anti-human IgG (Jackson Immunolabs), at 10 μg/ml, on ice for 45 min. For each antibody, binding to each mutant human CD20 was assessed by flow cytometry.

[4] = target: T3, mutant human CD20 #2 (N163D); experiment: FACS, mutant-hCD20 MG87 cells; 100%=best antibody
Experimental: as §1

[5] = target: T4, mutant human CD20 #4 (N166D); experiment: FACS, mutant-hCD20 MG87 cells; 100%=best antibody
Experimental: as §1

[6] = target: T5, mutant human CD20 #7 (Y77F, N163D); experiment: FACS, mutant-hCD20 MG87 cells; 100%=best antibody
Experimental: as §1

[7] = target: T6, mutant human CD20 #8 (Y77F, N163D, …); experiment: FACS, mutant-hCD20 MG87 cells; 100%=best antibody
Experimental: as §1

[8] = target: T7, mutant human CD20 #10 (A157V); experiment: FACS, mutant-hCD20 MG87 cells; 100%=best antibody
Experimental: as §1

ADCC EC50 (pM), Daudi + PBMC [1] | Total Mean Fluorescent Intensity [2] | Percent of Binding to Mutant Human CD20 [3] | Percent of Binding to Mutant Human CD20 [4] | Percent of Binding to Mutant Human CD20 [5] | Percent of Binding to Mutant Human CD20 [6] | Percent of Binding to Mutant Human CD20 [7] | Percent of Binding to Mutant Human CD20 [8] | Binder
6.77 pM | 2990 | 56% | 6% | 40% | 1% | 0% | 79% | 3B9-10 (antibody, V domains shown, Fully human IgG, constant region not specified; also called 3B9-10N) VH: EVQLVESGGGLVQPGRSLRLSCVASGFTFNDYAMHWVRQAPGKGLEWVSVISWNSDSIGYADSVKGRFTISRDNAKNSLYLQMHSLRAEDTALYYCAKDNHYGSGSYYYYQYGMDVWGQGTTVTVSS VL: EIVMTQSPATLSVSPGERATLSCRASQSVSSNLAWYQQKPGQAPRLLIYGTSTRATGIPARFSGSGSGTEFTLTISSLQSEDFAVYYCQQYNNWPLTFGGGTKVEIK
5.15 pM | 3390 | 100% | 74% | 85% | 2% | 0% | 98% | 6F6-1 (antibody, V domains shown, Fully human IgG, constant region not specified; also called 6F6-1N) VH: AVQLVESGGGLVQPGRSLRLSCAASGFTFRDYAMHWVRQGPGKGLEWVSGISWNTDYIGYADSVKGRFTISRDNAKNSLYLQMNSLRPEDTALYYCAKDARYGRDNYYGMDVWGQGTTVTVSS VL: EIVMTQSPATLSVSPGERATLSCRASQSVSHNLAWYQQKPGQAPRLLIYGAYTRATGIPDRFSGTGSGTEFTLTISSLQSEDFAVFYCQQYNNWPLTFGGGTKVEIK
2.37 pM | 2910 | 14% | 0% | 8% | 1% | 0% | 76% | 9E4-20 (antibody, V domains shown, Fully human IgG, constant region not specified; also called 9E4-20N) VH: EVQLVESGGGLVQPGRSLRLSCAASGFTFYDYAMHWVRQAPGKGLEWVSGISWNSDYIGYADSVKGRFTISRDNAKNSLYLQMNSLRAEDTALYYCAKDARYGRNNYYGMDVWGPGTTVTVSS VL: not shown
11 pM | 2910 | 36% | 0% | 22% | 1% | 0% | 77% | 9C3-8 (antibody, V domains shown, Fully human IgG, constant region not specified; also called 9C3-8N) VH: EVQLVESGGGLVQPGRSLRLSCAASGFSFHDYAMHWVRQAPGKGLEWVSGISWNSDSLGYADSVKGRFTISRDNAKNSLYLQMNSLRAEDTALYYCAKDNHYGSGSHYYYKYGMDVWGQGTTVTVSS VL: not shown
6.68 pM | 3400 | 79% | 54% | 60% | 2% | 0% | 87% | 10F2-13 (antibody, V domains shown, Fully human IgG, constant region not specified; also called 10F2-13N; ab 10F2-13) VH: EEQLVESGGDLVQPGRSLRLSCAASGFTFHDYTMHWVRQAPGKGLEWVSGISWNSGSLGYADSVKGRFTISRDNAKKSLYLQMNSLRAEDTALYYCAKDPSYGSGSYHSYYGMDVWGQGTTVTVSS VL: EIVLTQSPATLSLSPGERATLSCWASQSISRYLVWYQQKCGQAPRLLIYEASKRATGIPVRFSGSGSGTDFTLTISSLESEDFAVYYCQQRFNWPLTFGGGTKVEIK
2.14 pM | 3080 | 94% | 49% | 84% | 1% | 0% | 92% | 7E1-13 (antibody, V domains shown, Fully human IgG, constant region not specified; also called 7E1-13N) VH: EVQLVESGGGLVQPGRSLRLSCTASGFTFGDFPMHWVRQAPGKGLEWVSGITWNSGSIVYADSVKGRFTISRDNAKNSLYLQMNSLRTEDTALYYCAKDSHYGSGNFYYYYYGMDVWGQGTTVTVSS VL: not shown
1.53 pM | 3160 | 67% | 2% | 5% | 2% | 0% | 75% | 9D4-7 (antibody, V domains shown, Fully human IgG, constant region not specified; also called 9D4-7N) VH: EVQLVESGGGLVQPGRSLRLSCAASGFTFYDYAMHWVRQAPGKGLEWVSGISWNSDTIGYADSVKGRFTISRDNAKNSLYLQMNSLRAEDTALYYCTKDGSYGHFYSGLDVWGQGTTVTVSS VL: EIVLTQSPATLSLSPGERATLSCRASQSVSSYLAWYQQKPGQAPRLLIYVASNRATGIPARFSGSGSGTDFTLTISSLEPDDFAVYYCQQRYYWPLTFGGGTKVEIK
14.8 pM | 3410 | 86% | 45% | 70% | 1% | 0% | 96% | 8G6-5 (antibody, V domains shown, Fully human IgG, constant region not specified; also called 8G6-5N) VH: EVQLAESGGDLVQSGRSLRLSCAASGITFHDYAMHWVRQPPGKGLEWVSGISWNSDYIGYADSVKGRFTISRDNAKKSLYLQMNSLRPDDTALYYCVKDFHYGSGSNYGMDVWGQGTTVTVSP VL: EIVMTQSPATLSMSPGERATLSCRASQSVSRNLAWYQQKVGQAPRLLISGASTRATGIPARFSGSGSGTEFTLTINSLQSEDFAVYYCQQSNDWPLTFGQGTRLEIK
